Source: article PMC13397619

B1: NLV2 TCR alpha chain (CDR3α only) (parent)
chain: AGPMKTSYDKVI
partner: NLVGMVATV
B2: NLV2 TCR alpha chain (CDR3α only) (parent)
chain: AGPMKTSYDKVI
partner: MLVPMVATV

Variants of: B1
Assay: T-Switch: Jurkat TCRβ−/− cells expressing a CDR3 saturation-mutagenesis library, stained with two peptide-HLA-A*02:01 tetramers (original and novel peptide) plus anti-CD3, FACS-sorted into four gates, gDNA sequenced
Conditions: with HLA-A*02:01 with peptide … (NLV 2-2, the original bait), tetramers 1 µg/mL, 30 min on ice, DP and SW gates expanded about 10 days between rounds ('two to three rounds of selection' in the Methods), gate SP: higher = more of the variant in the gate that binds the original peptide and not the novel one = retained original binding. Fold enrichment of the CDR3 variant in one FACS gate of a two-tetra, unresolved parent, parent is a CDR3 fragment, scale: fold enrichment, numbering: sequential-on-construct, sequence …

| Variant | enrichment |
| --- | --- |
| […] (CDR3 as printed); P3G derived by comparing it with the table's wild-type CDR3 AGPMKTSYDKVI | 0 |
| […] (CDR3 as printed); M4F derived by comparing it with the table's wild-type CDR3 AGPMKTSYDKVI | 0 |
| […] (CDR3 as printed); I12R derived by comparing it with the table's wild-type CDR3 AGPMKTSYDKVI | 0 |
| […] (CDR3 as printed); V11A derived by comparing it with the table's wild-type CDR3 AGPMKTSYDKVI | 1.13 |
| […] (CDR3 as printed); K10L derived by comparing it with the table's wild-type CDR3 AGPMKTSYDKVI | 0 |
| […] (CDR3 as printed); S7C derived by comparing it with the table's wild-type CDR3 AGPMKTSYDKVI | 0 |
| […] (CDR3 as printed); A1W derived by comparing it with the table's wild-type CDR3 AGPMKTSYDKVI | 0 |
| […] (CDR3 as printed); V11Y derived by comparing it with the table's wild-type CDR3 AGPMKTSYDKVI | 0 |
| […] (CDR3 as printed); T6C derived by comparing it with the table's wild-type CDR3 AGPMKTSYDKVI | 0 |
| […] (CDR3 as printed); K10H derived by comparing it with the table's wild-type CDR3 AGPMKTSYDKVI | 0.422 |
| […] (CDR3 as printed); S7H derived by comparing it with the table's wild-type CDR3 AGPMKTSYDKVI | 0 |
| […] (CDR3 as printed); P3Q derived by comparing it with the table's wild-type CDR3 AGPMKTSYDKVI | 0 |
| […] (CDR3 as printed); G2I derived by comparing it with the table's wild-type CDR3 AGPMKTSYDKVI | 0 |
| […] (CDR3 as printed); V11T derived by comparing it with the table's wild-type CDR3 AGPMKTSYDKVI | 0 |
| […] (CDR3 as printed); K5Y derived by comparing it with the table's wild-type CDR3 AGPMKTSYDKVI | 0 |
| […] (CDR3 as printed); G2T derived by comparing it with the table's wild-type CDR3 AGPMKTSYDKVI | 10.1 |
| […] (CDR3 as printed); D9G derived by comparing it with the table's wild-type CDR3 AGPMKTSYDKVI | 0 |
| […] (CDR3 as printed); S7N derived by comparing it with the table's wild-type CDR3 AGPMKTSYDKVI | 0 |
| […] (CDR3 as printed); G2N derived by comparing it with the table's wild-type CDR3 AGPMKTSYDKVI | 0 |
| […] (CDR3 as printed); S7I derived by comparing it with the table's wild-type CDR3 AGPMKTSYDKVI | 0 |
| […] (CDR3 as printed); I12P derived by comparing it with the table's wild-type CDR3 AGPMKTSYDKVI | 0 |
| […] (CDR3 as printed); K5D derived by comparing it with the table's wild-type CDR3 AGPMKTSYDKVI | 37.8 |
| […] (CDR3 as printed); K5G derived by comparing it with the table's wild-type CDR3 AGPMKTSYDKVI | 12.9 |
| […] (CDR3 as printed); V11M derived by comparing it with the table's wild-type CDR3 AGPMKTSYDKVI | 0 |

| Variant | enrichment |
| --- | --- |
| […] (CDR3 as printed); T6D derived by comparing it with the table's wild-type CDR3 AGPMKTSYDKVI | 0 |
| […] (CDR3 as printed); P3N derived by comparing it with the table's wild-type CDR3 AGPMKTSYDKVI | 0.173 |
| […] (CDR3 as printed); G2S derived by comparing it with the table's wild-type CDR3 AGPMKTSYDKVI | 0 |
| […] (CDR3 as printed); G2H derived by comparing it with the table's wild-type CDR3 AGPMKTSYDKVI | 0 |
| […] (CDR3 as printed); I12D derived by comparing it with the table's wild-type CDR3 AGPMKTSYDKVI | 0 |
| […] (CDR3 as printed); T6K derived by comparing it with the table's wild-type CDR3 AGPMKTSYDKVI | 0 |
| […] (CDR3 as printed); I12N derived by comparing it with the table's wild-type CDR3 AGPMKTSYDKVI | 0.107 |
| […] (CDR3 as printed); K5N derived by comparing it with the table's wild-type CDR3 AGPMKTSYDKVI | 0 |
| […] (CDR3 as printed); T6F derived by comparing it with the table's wild-type CDR3 AGPMKTSYDKVI | 0 |
| […] (CDR3 as printed); I12A derived by comparing it with the table's wild-type CDR3 AGPMKTSYDKVI | 2.32 |
| […] (CDR3 as printed); T6P derived by comparing it with the table's wild-type CDR3 AGPMKTSYDKVI | 9.39 |
| […] (CDR3 as printed); Y8H derived by comparing it with the table's wild-type CDR3 AGPMKTSYDKVI | 0 |
| […] (CDR3 as printed); D9T derived by comparing it with the table's wild-type CDR3 AGPMKTSYDKVI | 0 |
| […] (CDR3 as printed); D9N derived by comparing it with the table's wild-type CDR3 AGPMKTSYDKVI | 0 |
| […] (CDR3 as printed); P3H derived by comparing it with the table's wild-type CDR3 AGPMKTSYDKVI | 0 |
| […] (CDR3 as printed); P3T derived by comparing it with the table's wild-type CDR3 AGPMKTSYDKVI | 0 |
| […] (CDR3 as printed); M4Q derived by comparing it with the table's wild-type CDR3 AGPMKTSYDKVI | 5.77 |
| […] (CDR3 as printed); G2C derived by comparing it with the table's wild-type CDR3 AGPMKTSYDKVI | 0 |
| […] (CDR3 as printed); T6Y derived by comparing it with the table's wild-type CDR3 AGPMKTSYDKVI | 0 |
| […] (CDR3 as printed); D9S derived by comparing it with the table's wild-type CDR3 AGPMKTSYDKVI | 0 |
| […] (CDR3 as printed); K5F derived by comparing it with the table's wild-type CDR3 AGPMKTSYDKVI | 0 |
| […] (CDR3 as printed); K5I derived by comparing it with the table's wild-type CDR3 AGPMKTSYDKVI | 3.95 |
| […] (CDR3 as printed); D9H derived by comparing it with the table's wild-type CDR3 AGPMKTSYDKVI | 0.283 |
| […] (CDR3 as printed); K10C derived by comparing it with the table's wild-type CDR3 AGPMKTSYDKVI | 0.162 |

Variants of: B2
Assay: as above
Conditions: with HLA-A*02:01 with peptide … (NLV 3-1, the novel peptide), tetramers 1 µg/mL, 30 min on ice, SP, DP and SW gates expanded about 10 days between rounds ('two to three rounds of selection' in the Methods), gate SW: higher = more of the variant in the gate that binds the novel peptide and not the original one = switched binding. Fold enrichment of the CDR3 variant in one FACS gate of a two-tetramer stain, unresolved parent, parent is a CDR3 fragment, scale: fold enrichment, numbering: sequential-on-construct, sequence starts at 1

| Variant | enrichment |
| --- | --- |
| […] (CDR3 as printed); G2M derived by comparing it with the table's wild-type CDR3 AGPMKTSYDKVI | 0 |
| […] (CDR3 as printed); K5C derived by comparing it with the table's wild-type CDR3 AGPMKTSYDKVI | 0 |
| […] (CDR3 as printed); D9R derived by comparing it with the table's wild-type CDR3 AGPMKTSYDKVI | 0 |
| […] (CDR3 as printed); D9M derived by comparing it with the table's wild-type CDR3 AGPMKTSYDKVI | 0 |
| […] (CDR3 as printed); D9L derived by comparing it with the table's wild-type CDR3 AGPMKTSYDKVI | 0 |
| […] (CDR3 as printed); I12D derived by comparing it with the table's wild-type CDR3 AGPMKTSYDKVI | 0 |
| […] (CDR3 as printed); A1G derived by comparing it with the table's wild-type CDR3 AGPMKTSYDKVI | 0 |
| […] (CDR3 as printed); I12L derived by comparing it with the table's wild-type CDR3 AGPMKTSYDKVI | 0 |
| […] (CDR3 as printed); I12M derived by comparing it with the table's wild-type CDR3 AGPMKTSYDKVI | 0 |
| […] (CDR3 as printed); D9A derived by comparing it with the table's wild-type CDR3 AGPMKTSYDKVI | 0 |
| […] (CDR3 as printed); G2C derived by comparing it with the table's wild-type CDR3 AGPMKTSYDKVI | 0 |
| […] (CDR3 as printed); K10E derived by comparing it with the table's wild-type CDR3 AGPMKTSYDKVI | 0.402 |
| […] (CDR3 as printed); I12Q derived by comparing it with the table's wild-type CDR3 AGPMKTSYDKVI | 0 |
| […] (CDR3 as printed); G2I derived by comparing it with the table's wild-type CDR3 AGPMKTSYDKVI | 0 |
| […] (CDR3 as printed); G2P derived by comparing it with the table's wild-type CDR3 AGPMKTSYDKVI | 0 |
| […] (CDR3 as printed); K5D derived by comparing it with the table's wild-type CDR3 AGPMKTSYDKVI | 0 |
| […] (CDR3 as printed); K10P derived by comparing it with the table's wild-type CDR3 AGPMKTSYDKVI | 0 |
| […] (CDR3 as printed); D9G derived by comparing it with the table's wild-type CDR3 AGPMKTSYDKVI | 0 |

| Variant | enrichment |
| --- | --- |
| […] (CDR3 as printed); K10N derived by comparing it with the table's wild-type CDR3 AGPMKTSYDKVI | 0 |
| […] (CDR3 as printed); K5E derived by comparing it with the table's wild-type CDR3 AGPMKTSYDKVI | 0 |
| […] (CDR3 as printed); G2T derived by comparing it with the table's wild-type CDR3 AGPMKTSYDKVI | 0 |
| […] (CDR3 as printed); K10Q derived by comparing it with the table's wild-type CDR3 AGPMKTSYDKVI | 0 |
| […] (CDR3 as printed); K10S derived by comparing it with the table's wild-type CDR3 AGPMKTSYDKVI | 1.59 |
| […] (CDR3 as printed); D9Q derived by comparing it with the table's wild-type CDR3 AGPMKTSYDKVI | 0 |
| […] (CDR3 as printed); K5A derived by comparing it with the table's wild-type CDR3 AGPMKTSYDKVI | 0 |
| […] (CDR3 as printed); A1N derived by comparing it with the table's wild-type CDR3 AGPMKTSYDKVI | 0 |
| […] (CDR3 as printed); A1D derived by comparing it with the table's wild-type CDR3 AGPMKTSYDKVI | 0 |
| […] (CDR3 as printed); M4E derived by comparing it with the table's wild-type CDR3 AGPMKTSYDKVI | 0 |
| […] (CDR3 as printed); K10M derived by comparing it with the table's wild-type CDR3 AGPMKTSYDKVI | 0 |
| […] (CDR3 as printed); I12F derived by comparing it with the table's wild-type CDR3 AGPMKTSYDKVI | 0 |
| […] (CDR3 as printed); K5G derived by comparing it with the table's wild-type CDR3 AGPMKTSYDKVI | 0 |
| […] (CDR3 as printed); A1T derived by comparing it with the table's wild-type CDR3 AGPMKTSYDKVI | 0 |
| […] (CDR3 as printed); M4F derived by comparing it with the table's wild-type CDR3 AGPMKTSYDKVI | 0 |
| […] (CDR3 as printed); K5S derived by comparing it with the table's wild-type CDR3 AGPMKTSYDKVI | 0 |
| […] (CDR3 as printed); A1M derived by comparing it with the table's wild-type CDR3 AGPMKTSYDKVI | 0 |
